In the experiment the target is T1, BA.2.12.1 S trimer (SARS-CoV-2, Omicron BA.2.12.1, strain).
T1 construct: also called BA.2.12.1 spike
Description: cryo-EM structure. The conditions noted are these: both partners purified.

A word on the stoichiometry N: it is the number of molecules, sites or subunits per partner or assembly.

B1: XBB-4 Fab (Fab, V domains shown)
VH: EVQLVQSGGGLVKPGGSLRLSCAASGFSFTNAWMNWVRQAPGKGLEWVGRIKSKADGGTTDYAAPVKGKFTISRDDSKNTLYLQMNSLKTEDTAIYYCTSDVYDFSTGFGQRDDFDYWGQGTLVTVSS
VL: DIVMTQSPSSLSASVGDRVTITCRASQSISYFLNWYQQKPGKAPKLLISAASSLQSGVPSRFSGSGSGTDFTLTISSLQPEDFATYYCQQSYSSLITFGGGTKVEIK
B1: the “stoichiometry N” value turned out to be 3 Fabs per S trimer.

Source of the values: PMC11148769 (Cell Reports Medicine, 2024).
